Measured values as given in patent publication US20220073617A1 (Five Prime, published 2022).

T1: human VISTA on cells (human monocytes, AML3 cells, 293T/HEK293 cells expressing full-length human VISTA) (human, UniProt Q9H7M9 33-311)
T1 sequence: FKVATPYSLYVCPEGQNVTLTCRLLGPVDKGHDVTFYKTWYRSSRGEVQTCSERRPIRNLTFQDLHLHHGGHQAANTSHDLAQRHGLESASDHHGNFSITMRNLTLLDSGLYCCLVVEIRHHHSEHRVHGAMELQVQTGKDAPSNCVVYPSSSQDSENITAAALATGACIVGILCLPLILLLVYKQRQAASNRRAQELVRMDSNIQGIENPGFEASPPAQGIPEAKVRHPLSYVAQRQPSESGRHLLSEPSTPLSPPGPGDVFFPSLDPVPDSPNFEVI

T2: human VISTA-Fc (hVISTA extracellular domain, amino acids 33-194 of SEQ ID NO: 1, linked to an Fc domain) (human, UniProt Q9H7M9 33-194)
T2 construct: also called WT VISTA; hVISTAFc
T2 sequence: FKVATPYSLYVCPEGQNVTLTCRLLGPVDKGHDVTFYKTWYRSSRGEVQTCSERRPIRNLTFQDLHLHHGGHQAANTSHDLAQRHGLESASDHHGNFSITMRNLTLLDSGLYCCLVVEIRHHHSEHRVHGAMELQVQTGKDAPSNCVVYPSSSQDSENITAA

T3: cyno VISTA-ECD (His tag) (cynomolgus macaque, UniProt Q9H7M9 33-193 (human entry))
T3 construct: also called cyVISTA-His
T3 chain: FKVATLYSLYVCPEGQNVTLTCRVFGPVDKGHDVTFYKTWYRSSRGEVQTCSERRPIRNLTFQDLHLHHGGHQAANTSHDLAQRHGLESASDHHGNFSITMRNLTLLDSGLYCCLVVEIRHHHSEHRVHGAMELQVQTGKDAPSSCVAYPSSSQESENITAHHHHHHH


Columns and labels:
[1] = target: T1, human VISTA on cells (human monocytes, …); experiment: cell-based or functional assay
[2] = target: T4, monovalent hVISTA-ECD (amino acids 32-193 of SEQ ID NO: 1 with a 7xHis tail) (human, UniProt Q9H7M9 33-193); experiment: SPR 37C, 100 nM hVISTA-ECD, pH 7.4, 6.7, 6.0
T4 construct: analyte of the SPR assays; also called huVISTA-His; hVISTA-His

[3] = target: T2, human VISTA-Fc (hVISTA extracellular …); experiment: BLI
[4] = target: T4, monovalent hVISTA-ECD (amino acids …); experiment: SPR 37C
[5] = target: T3, cyno VISTA-ECD (His tag); experiment: SPR 37C
[6] = target: T4, monovalent hVISTA-ECD (amino acids …); experiment: SPR 37C pH 6.0
[7] = target: T3, cyno VISTA-ECD (His tag); experiment: SPR 37C pH 6.0
[8] = target: T4, monovalent hVISTA-ECD (amino acids …); experiment: SPR 37C pH 7.4
[9] = target: T3, cyno VISTA-ECD (His tag); experiment: SPR 37C pH 7.4
[10] = target: T5, avidin (ThermoFisher Scientific catalog #21128) (UniProt P02701 25-152); experiment: SPR 25C pH 6.0 and 7.4
T5 sequence (P02701 25-152 limits assumed): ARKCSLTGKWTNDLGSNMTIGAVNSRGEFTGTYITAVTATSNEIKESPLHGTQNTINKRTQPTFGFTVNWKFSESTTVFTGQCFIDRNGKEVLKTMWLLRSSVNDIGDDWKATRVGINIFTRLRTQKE
Description: (§1) The binding specificity of the '029, '761 and '767 clones to VISTA and to other high pI proteins was evaluated by SPR at neutral and acidic pH using a Biacore® T100 instrument (GE Healthcare). Protein A (ThermoFisher Scientific catalog #21181) was diluted to 20 ug/ml in 10 mM sodium acetate pH 4.5 and immobilized onto flow cells of a CM3 biosensor following the manufacturer's amine coupling protocol (GE Healthcare), targeting 800 RU immobilization density of Protein A per flow cell. SPR experiments were conducted at 25° C. using PBST (137 mM sodium chloride, 2.7 mM potassium chloride, 10 mM phosphate buffer, 0.05% Tween 20) running buffer at pH 7.4 and 6.0. Antibodies (formatted as IgG1.3 antibodies) were diluted to 50 nM in PBST pH 7.4, and were captured across active biosensor flow cells at 5 ul/min for 60 seconds. […] Two 15 second injections of 10 mM glycine pH 1.5 were used to regenerate the Protein A capture surface between assay cycles. Reference flow cell and 0 nM blank-subtracted sensorgrams were inspected using Biacore® T200 Evaluation Software v.2.0. The results are shown in […]

[11] = target: BSA (Calbiochem catalog #126593) (UniProt P02769 25-607); experiment: SPR 25C pH 6.0 and 7.4
Sequence of BSA (Calbiochem catalog #126593) (P02769 25-607 limits assumed): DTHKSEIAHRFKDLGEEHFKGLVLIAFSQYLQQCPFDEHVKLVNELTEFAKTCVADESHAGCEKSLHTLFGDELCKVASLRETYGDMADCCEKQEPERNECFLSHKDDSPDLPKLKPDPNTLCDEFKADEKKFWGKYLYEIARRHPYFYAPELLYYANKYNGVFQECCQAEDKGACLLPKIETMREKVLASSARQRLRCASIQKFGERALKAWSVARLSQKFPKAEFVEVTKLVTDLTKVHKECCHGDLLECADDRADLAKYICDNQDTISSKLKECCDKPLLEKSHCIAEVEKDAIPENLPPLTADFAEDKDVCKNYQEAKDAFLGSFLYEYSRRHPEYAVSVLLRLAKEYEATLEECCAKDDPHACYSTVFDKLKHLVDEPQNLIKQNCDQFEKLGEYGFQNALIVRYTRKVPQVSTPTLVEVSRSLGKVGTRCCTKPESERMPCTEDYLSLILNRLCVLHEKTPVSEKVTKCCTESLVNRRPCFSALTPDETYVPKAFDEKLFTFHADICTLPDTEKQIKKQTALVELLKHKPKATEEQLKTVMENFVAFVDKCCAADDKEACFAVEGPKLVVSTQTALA
Description: as §1

[12] = target: T4, monovalent hVISTA-ECD (amino acids …); experiment: SPR 37C; remark: listed apart in the source
Description: For this assay, '029, '761 and '767 were reformatted as hIgG1f isotype and were expressed as both standard hIgG1f and in hIgG1f afucosylated formats to compare against the hIgG1.3f Fc. An SPR kinetics assay was conducted to measure koff and KD binding affinity measurements for VISTA Abs at acidic and physiological pH using a Biacore® T100 instrument (GE Healthcare). Protein A (ThermoFisher Scientific catalog #21181) was diluted to 20 μg/ml in 10 mM sodium acetate pH 4.5 and immobilized onto flow cells of a CM5 biosensor following the manufacturer's amine coupling protocol (GE Healthcare), targeting 2,000 RU immobilization density of Protein A per flow cell. […] Antibodies were diluted to 25 nM in PBST pH 7.4, and were captured across active biosensor flow cells at 5 ul/min for 45 seconds. […] Two 15 second injections of 10 mM glycine pH 1.5 were used to regenerate the Protein A capture surface between assay cycles. Rate constants ka (kₒₙ) and kd (koff) were derived from reference flow cell and 0 nM blank-subtracted sensorgrams, and were fit to a 1:1 binding model in Biacore® T200 Evaluation Software v.2.0. The affinity constant, KD was calculated as the ratio of rate constants koff/kₒₙ for each VISTA antibody. Ratios of koff and KD at pH 7.4/pH 6.0 were calculated to compare off-rate and affinity improvement at acidic pH relative to physiological pH.

[13] = target: T5, avidin (ThermoFisher Scientific catalog …); experiment: SPR pH 6.0 and 7.4
[14] = target: T4, monovalent hVISTA-ECD (amino acids …); experiment: SPR (FIG. 19C)

Row | Binder | KD ratio (7.4/6) [4] | kd ratio (7.4/6) [4] | KD ratio (7.4/6) [5] | kd ratio (7.4/6) [5] | Kd [6] | kon [6] | Kd [7] | koff [7] | kon [7] | Kd [8] | koff [8] | kon [8] | Kd [9] | koff [9] | kon [9] | binding result [10] | binding result [11] | binding result [13] | other results
1 | VISTA.5 (VISTA antibody 1, non-blocking antibody) (antibody, V domains shown, also called VISTA mAb 1; mAb 1) VH: AVQLQESGPGLVRPSQSLSLTCTVTDYSITSDYAWNWIRQFPGSKLEWLGFIGYSGNTNYNPSLESRISITRHTSKNQFFLHLNSMTTEDTATYYCARSLYGGSHWYFDVWGAGTTVTVSS VL: DIVLTQSPASLAVSLGQRATISCRGSESVEYYGTILMQWYQQKPGQPPKLLIYGASNVESGVPARFSGSGSGTDFSLNIHPVEEDDIAMYFCQQSRKVPWTFGGGTKLEIK |  |  |  |  |  |  |  |  |  |  |  |  |  |  |  |  |  |  | EC50, AML3 viability (Cell Titer Glo), endolysosome-dependent antibody drug conjugate killing assay [1]: 0.485 µg/mL; binding result [2]: binds
2 | P1-061029.IgG1.3 (antibody, also called P1-061029 hIgG1.3f; parent) heavy: EVQLVESGGGLVQPGKSLRLSCAASGFTLDDYAMHWVRQAPGKGLEWVSGINWNSANIGYADSVKGRFTISRDNAKNSLYLQMNSLRTEDTALYYCAKVPGYSGGWIDAFDVWGQGTMVTVSSASTKGPSVFPLAPSSKSTSGGTAALGCLVKDYFPEPVTVSWNSGALTSGVHTFPAVLQSSGLYSLSSVVTVPSSSLGTQTYICNVNHKPSNTKVDKRVEPKSCDKTHTCPPCPAPEAEGAPSVFLFPPKPKDTLMISRTPEVTCVVVDVSHEDPEVKFNWYVDGVEVHNAKTKPREEQYNSTYRVVSVLTVLHQDWLNGKEYKCKVSNKALPAPIEKTISKAKGQPREPQVYTLPPSREEMTKNQVSLTCLVKGFYPSDIAVEWESNGQPENNYKTTPPVLDSDGSFFLYSKLTVDKSRWQQGNVFSCSVMHEALHNHYTQKSLSLSPG light: not shown | 9.1 | 1.1 | 4.7 | 1.1 | 6.8 nM | 980000 M⁻¹ s⁻¹ | 10 nM | 0.0062 s⁻¹ | 620000 M⁻¹ s⁻¹ | 62 nM | 0.0075 s⁻¹ | 120000 M⁻¹ s⁻¹ | 47 nM | 0.0067 s⁻¹ | 140000 M⁻¹ s⁻¹ | no binding (tested: <=10 RU, 100-10 nM) | no binding (tested: <=10 RU, 100-10 nM) |  | binding result [3]: binds; koff [6]: 0.0066 s⁻¹
3 | P1-068761.IgG1.3 (antibody, also called P1-068761 hIgG1.3f) heavy: EVQLVESGGGLVQPGKSLRLSCAASGFTLEDEAMHWVRQAPGKGLEWVSGINWNSEEIGYADSVKGRFTISRDNAKNSLYLQMNSLRTEDTALYYCAKVPGYSHGWIDAEDVWGQGTMVTVSSASTKGPSVFPLAPSSKSTSGGTAALGCLVKDYFPEPVTVSWNSGALTSGVHTFPAVLQSSGLYSLSSVVTVPSSSLGTQTYICNVNHKPSNTKVDKRVEPKSCDKTHTCPPCPAPEAEGAPSVFLFPPKPKDTLMISRTPEVTCVVVDVSHEDPEVKFNWYVDGVEVHNAKTKPREEQYNSTYRVVSVLTVLHQDWLNGKEYKCKVSNKALPAPIEKTISKAKGQPREPQVYTLPPSREEMTKNQVSLTCLVKGFYPSDIAVEWESNGQPENNYKTTPPVLDSDGSFFLYSKLTVDKSRWQQGNVFSCSVMHEALHNHYTQKSLSLSPG light: not shown | 2120 | 26.4 | 696 | 21.2 | 4.1 nM | 350000 M⁻¹ s⁻¹ | 7.9 nM | 0.0017 s⁻¹ | 210000 M⁻¹ s⁻¹ | 8700 nM | 0.037 s⁻¹ | 4300 M⁻¹ s⁻¹ | 5500 nM | 0.036 s⁻¹ | 6500 M⁻¹ s⁻¹ | no binding (tested: <=10 RU, 100-10 nM) | no binding (tested: <=10 RU, 100-10 nM) |  | fold faster koff at pH 6.9 compared to pH 6.0 [12]: ≥ 10 fold; fold lower affinity at pH 6.45 compared to pH 6.0 [12]: ≥ 10 fold; fold lower affinity at pH 6.9 compared to pH 6.0 [12]: ≥ 100 fold; fold lower affinity at pH 7.4 compared to pH 6.0 [12]: ≥ 1000 fold; fold weaker KD at pH 6.9 compared to pH 6.0 [12]: ≥ 100 fold; selectivity for pH 6 over pH 7.4 in KD [12]: > 2000 fold; selectivity for pH 6 over pH 7.4 in koff [12]: > 10 fold
4 | VISTA.4.IgG1.3 (antibody, V domains shown, also called 41F11) VH: QVQLVESGGGLVKPGGSLRLSCAASGFTFSDYYMSWIRQAPGKGLEWVSYISNSGSPIYYADSVKGRFTISRDNAKNSLYLQMNSLRAEDTAVYYCARDLPGWYFDLWGRGTLVTVSS VL: EIVLTQSPATLSLSPGERATLSCRASQSVSSYLAWYQQKPGQAPRLLIYDASNRATGIPARFSASGSGTDFTLTISSLEPEDFAVYYCQQRNNWPRTFGQGTKVEIKR |  |  |  |  |  |  |  |  |  |  |  |  |  |  |  |  |  | no binding | 

Continued, in another order:

Row | KD ratio (7.4/6) [4] | kd ratio (7.4/6) [4] | KD ratio (7.4/6) [5] | kd ratio (7.4/6) [5] | Kd [6] | kon [6] | Kd [7] | koff [7] | kon [7] | Kd [8] | koff [8] | kon [8] | Kd [9] | koff [9] | kon [9] | binding result [10] | binding result [11] | binding result [13] | Binder | other results
5 |  |  |  |  |  |  |  |  |  |  |  |  |  |  |  |  |  | no binding | P1-072315-1 (41F11_VH_T28P/Y50W/S55E/L96E/Y100E VK_A64G) (antibody, V domains shown) VH: QVQLVESGGGLVKPGGSLRLSCAASGFPFSDYYMSWIRQAPGKGLEWVSWISNSGEPIYYADSVKGRFTISRDNAKNSLYLQMNSLRAEDTAVYYCARDEPGWEFDLWGRGTLVTVSS VL: EIVLTQSPATLSLSPGERATLSCRASQSVSSYLAWYQQKPGQAPRLLIYDASNRATGIPARFSGSGSGTDFTLTISSLEPEDFAVYYCQQRNNWPRTFGQGTKVEIK | 
6 |  |  |  |  |  |  |  |  |  |  |  |  |  |  |  |  |  | no binding | P1-070976 (41F11_VH_T28P/Y50W/S55E/D95H/L96E/P97E/Y100E; VK_A64G), IgG1.3 (antibody, V domains shown, also called acidic pH selective VISTA.4 progeny) VH: QVQLVESGGGLVKPGGSLRLSCAASGFPFSDYYMSWIRQAPGKGLEWVSWISNSGEPIYYADSVKGRFTISRDNAKNSLYLQMNSLRAEDTAVYYCARHEEGWEFDLWGRGTLVTVSS VL: EIVLTQSPATLSLSPGERATLSCRASQSVSSYLAWYQQKPGQAPRLLIYDASNRATGIPARFSGSGSGTDFTLTISSLEPEDFAVYYCQQRNNWPRTFGQGTKVEIKR | fold higher affinity at pH 6.0 than at pH 7.4 [14]: 200 fold
